The record followed here is patent US20190382488A1 (IMAGINAB, published 2019).

Assay [1] has as its target T1, cell-surface human CD8 (human, UniProt P01732 22-235).
T1 construct: the cell is named under assay; also called cellular human CD8; CD8 on PC3-CD8 cells
Briefly: flow cytometry, HPB-ALL cells; Table 9 summary, HPB-ALL cells. On the procedure:
(§1) Flow cytometry analysis of the OKT8 mAbconstruct binding to cell-surface human CD8 on HPB-ALL cells was performed. Cells were stained with respective concentrations of antibody, washed, and then stained with a secondary anti-mouse IgG (Fc-specific) APC-conjugated antibody. Analysis was performed with 10,000 events/point in triplicate for each concentration. The results are shown in graph format in FIG. 28. The graph presents the mean fluorescence intensity (MFI) vs. the log of the concentration (nM). Error bars represent the standard error. The data indicates an EC₅₀ of 0.22 nM.
In general terms: A flow cytometer gives signals particle by particle.

In assay [2] the target is T1, cell-surface human CD8. Briefly: flow cytometry on HPB-ALL cells, anti-mouse IgG (Fc-specific)-APC. The procedure:
as §1

Assay [3] addresses T1, cell-surface human CD8. Briefly: flow cytometry, HPB-ALL cells. On the procedure: as §1
Assay [4] addresses T2, recombinant human CD8 (rhCD8) (human, UniProt P01732 22-182).
T2 construct: Soluble purified recombinant protein; also called purified recombinant human CD8 protein; soluble CD8
Briefly: SPR (summary table). The text has this: (§2) Surface plasma resonance (SPR) was used to determine the binding affinity for all the IAb_Mb_CD8 variants to recombinant human CD8 (Table 8.0). The minibody protein in the supernatant was captured on to the BIAcore chip using an anti-human IgG (Fc-specific) antibody. The amount of minibody captured on the chip was normalized to enable a direct comparison of binding affinity between the variants as a kinetic “scouting” experiment to rank affinities. The rhCD8 protein was passed over the captured minibody protein to measure binding.
(§3) Table 8.0 summarizes the measured association (ka), dissociation (kd), and kD constants for the IAb_Mb_CD8 variants binding to recombinant hCD8. The variants were captured on a BIAcore chip using anti-human Fc-specific IgG antibody.

Assay [5] has as its target T2, recombinant human CD8 (rhCD8). The experiment in a line: SPR (BIAcore), antibody as captured ligand, hCD8 analyte at 50 nM. A general note: SPR reads the build-up and loss of mass on a sensor chip optically.
Assay [6] has the same target. The experiment in a line: SPR (BIAcore), minibody captured via anti-human IgG Fc, hCD8 analyte at 50 nM.
Excerpt: as §2, §3

Assay [7] shares this target. The experiment in a line: ELISA on plate-coated rhCD8, transfection supernatant, HRP goat anti-human IgG (Fc-specific), TMB, absorbance 405 nm. On the procedure: 96 well plates were coated with rhCD8 antigen and incubated with supernatants obtained from the transient transfection. Binding was detected with HRP-conjugated goat anti-human (Fc-specific) IgG and TMB substrate. The absorbance measured at 405 nm. Dilutions were done in triplicate. Data is shown as mean of relative absorbance.
(In general: In an ELISA, binding on a coated surface is turned into a signal by an enzyme label.)

Assay [8] addresses T1, cell-surface human CD8. The experiment in a line: flow cytometry on HPB-ALL cells, anti-human IgG (Fc-specific)-APC.
In assay [9] the target is T1, cell-surface human CD8. Briefly: flow cytometry on PC3 cells overexpressing CD8, anti-human IgG (Fc-specific)-APC. On the procedure: Flow cytometry analysis of minibody (+/−lysine conjugation to Desferoxamine) binding to PC3 cells overexpressing CD8 was performed. Cells were stained with respective concentrations of minibody, washed, and then stained with a secondary anti-human IgG (Fc-specific) APC-conjugated antibody. Analysis was performed with 10,000 events/point in triplicate for each concentration. The results are shown in graph format in FIG. 29D. The graph presents the mean fluorescence intensity (MFI) vs. the log of the concentration (nM). Error bars represent the standard error. The data indicates an EC₅₀ of 0.64 nM and 0.83 nM.

T1 sequence (P01732 22-235 limits assumed): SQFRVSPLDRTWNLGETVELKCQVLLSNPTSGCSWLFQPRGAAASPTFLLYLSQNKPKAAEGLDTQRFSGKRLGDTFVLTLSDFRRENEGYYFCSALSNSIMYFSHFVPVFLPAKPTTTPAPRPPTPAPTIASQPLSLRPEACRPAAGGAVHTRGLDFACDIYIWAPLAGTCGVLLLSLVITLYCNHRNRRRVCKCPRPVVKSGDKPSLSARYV
T2 sequence (P01732 22-182 limits assumed): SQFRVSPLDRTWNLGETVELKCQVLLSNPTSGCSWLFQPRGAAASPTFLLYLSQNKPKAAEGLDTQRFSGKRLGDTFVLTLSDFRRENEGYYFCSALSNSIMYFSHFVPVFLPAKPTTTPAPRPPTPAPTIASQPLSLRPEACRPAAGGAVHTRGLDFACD

B1: OKT8 mAb (antibody, V domains shown)
VH: EVQLQQSGAELVKPGASVKLSCTASGFNIKDTYIHFVRQRPEQGLEWIGRIDPANDNTLYASKFQGKATITADTSSNTAYMHLCSLTSGDTAVYYCGRGYGYYVFDHWGQGTTLTVSS
VL: DVQINQSPSFLAASPGETITINCRTSRSISQYLAWYQEKPGKTNKLLIYSGSTLQSGIPSRFSGSGSGTDFTLTISGLEPEDFAMYYCQQHNENPLTFGAGTKLELK
notes: Parental murine monoclonal antibody (detected with anti-mouse IgG Fc); also called parental OKT8 antibody; parental OKT8
Regarding B1, the concentration for a half-maximal effect (EC50) (usually the concentration giving half of the maximal effect) with cell-surface human CD8 [1] amounted to 0.33 nM. Also, in the assay with cell-surface human CD8 [2], the concentration giving a half-maximal response (EC50) is 0.33 nM and the EC50 (read off the curve) (usually the concentration that produces a half-maximal response) is roughly 0.3 nM. In the assay with cell-surface human CD8 [3], this molecule came in with an EC50 of 0.22 nM. Also, in assay [4], the Kd (usually the free concentration of one partner at which half of the binding sites on the other are occupied at equilibrium, for simple one-to-one binding) was 1.8 nM. Besides, in assay [5], the Ka was found to be 5.5e+08 M⁻¹; the Kd came out at 1.8 nM; the dissociation rate constant (koff) – broadly, a measure of how fast the partners let go of each other – turned out to be 0.001 s⁻¹; the kon – broadly, the rate constant with which the complex forms – is 560000 M⁻¹ s⁻¹.

B2: IAb_Mb1c_CD8 (other)
chain: DVQITQSPSSLSASVGDRVTITCRTSRSISQYLAWYQQKPGKVPKLLIYSGSTLQSGVPSRFSGSGSGTDFTLTISSLQPEDVATYYCQQHNENPLTFGGGTKVEIKGSTSGGGSGGGSGGGGSSQVQLVQSGAEVKKPGATVKISCKVSGFNIKDTYIHFVQQAPGKGLEWIGRIDPANDNTLYASKFQGKATITADTSTDTAYMELSSLRSGDTAVYYCGRGYGYYVFDHWGQGTLVTVSSEPKSCDKTHTCPPCGGGSSGGGSGGQPREPQVYTLPPSRDELTKNQVSLTCLVKGFYPSDIAVEWESNGQPENNYKTTPPVLDSDGSFFLYSKLTVDKSRWQQGNVFSCSVMHEALHNHYTQKSLSLSPGK
notes: also called variant 1c
On to B2, for which, in assay [6], the Ka was determined as 4e+08 M⁻¹, the Kd turned out to be 2.5 nM, the koff came out at 0.0018 s⁻¹ and the kon worked out at 700000 M⁻¹ s⁻¹. The “EC50 (read off the curve)” value in assay [7] was roughly 0.02 µg/mL.

B3: IAb_M1b_CD8-Df (other)
chain: DVQITQSPSSLSASVGDRVTITCRTSRSISQYLAWYQQKPGKVPKLLIYSGSTLQSGVPSRFSGSGSGTDFTLTISSLQPEDVATYYCQQHNENPLTFGGGTKVEIKGSTSGGGSGGGSGGGGSSEVQLVESGGGLVQPGGSLRLSCAASGFNIKDTYIHFVRQAPGKGLEWIGRIDPANDNTLYASKFQGKATISADTSKNTAYLQMNSLRAEDTAVYYCGRGYGYYVFDHWGQGTLVTVSSEPKSCDKTHTCPPCGGGSSGGGSGGQPREPQVYTLPPSRDELTKNQVSLTCLVKGFYPSDIAVEWESNGQPENNYKTTPPVLDSDGSFFLYSKLTVDKSRWQQGNVFSCSVMHEALHNHYTQKSLSLSPGK
modifications: Desferoxamine (Df) conjugated to lysine residues
notes: also called Df-labeled minibody
B3: the values for the EC50 in the assay with cell-surface human CD8 [8] and with cell-surface human CD8 [9] were 0.12 nM and 0.83 nM, respectively. Besides, in the assay with cell-surface human CD8 [9], the half-maximal effective concentration (EC50 (read off the curve)) was roughly 0.9 nM.
